# Article PMC3400432 (Developmental Cell, 2012)
# T1: Myc-epsin1 (UniProt O88339 1-575)
# T1 sequence (looked up): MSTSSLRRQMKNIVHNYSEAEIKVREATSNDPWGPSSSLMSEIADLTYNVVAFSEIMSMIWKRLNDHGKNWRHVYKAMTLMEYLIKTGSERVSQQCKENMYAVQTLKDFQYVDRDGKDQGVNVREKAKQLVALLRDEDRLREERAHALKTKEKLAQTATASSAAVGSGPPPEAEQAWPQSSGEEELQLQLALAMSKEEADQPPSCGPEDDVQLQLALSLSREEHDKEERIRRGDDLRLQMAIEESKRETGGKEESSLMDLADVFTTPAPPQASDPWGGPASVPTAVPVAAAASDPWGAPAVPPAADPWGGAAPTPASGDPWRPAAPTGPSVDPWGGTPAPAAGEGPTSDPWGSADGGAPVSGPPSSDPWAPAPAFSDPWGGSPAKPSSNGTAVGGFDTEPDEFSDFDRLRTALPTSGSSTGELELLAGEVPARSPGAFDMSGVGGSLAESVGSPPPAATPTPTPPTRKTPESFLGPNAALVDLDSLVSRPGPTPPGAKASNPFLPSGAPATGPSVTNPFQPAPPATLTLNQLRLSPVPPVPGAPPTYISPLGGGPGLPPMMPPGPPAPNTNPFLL
# B1: Dll1 expressed in 293T cells (ligand, UniProt P97677 18-714, looked up)
# chain: QVWSSGVFELKLQEFVNKKGLLGNRNCCRGGSGPPCACRTFFRVCLKHYQASVSPEPPCTYGSAVTAVLGVDSFSLPDGAGIDPAFSNPIRFPFGFTWPGTFSLIIEALHTDSPDDLATENPERLISRLTTQRHLTVGEEWSQDLHSSGRTDLRYSYRFVCDEHYYGEGCSVFCRPRDDAFGHFTCGERGEKMCDPGWKGQYCTDPICLPGCDDQHGYCDKPGECKCRVGWQGRYCDECIRYPGCLHGTCQQPWQCNCQEGWGGLFCNQDLNYCTHHKPCRNGATCTNTGQGSYTCSCRPGYTGANCELEVDECAPSPCRNGGSCTDLEDSYSCTCPPGFYGKVCELSAMTCADGPCFNGGRCSDNPDGGYTCHCPAGFSGFNCEKKIDLCSSSPCSNGAKCVDLGNSYLCRCQTGFSGRYCEDNVDDCASSPCANGGTCRDSVNDFSCTCPPGYTGRNCSAPVSRCEHAPCHNGATCHQRGQRYMCECAQGYGGANCQFLLPEPPPDLIVAAQGGSFPWVAVCAGVVLVLLLLLGCAAVVVCVRLKLQKHQPPPDPCGGETETMNNLANCQREKDVSVSIIGATQIKNTNKKADFHGDHGADKSSFKARYPTVDYNLIRDLKGDEATVRDAHSKRDTKCQSQGSVGEEKSTSTLRGGEVPDRKRPESVYSTSKDTKYQSVYVLSAEKDECVIATEV
# B2: epsin1-Venus (natural protein, rat, UniProt O88339 1-575, looked up)
# chain: MSTSSLRRQMKNIVHNYSEAEIKVREATSNDPWGPSSSLMSEIADLTYNVVAFSEIMSMIWKRLNDHGKNWRHVYKAMTLMEYLIKTGSERVSQQCKENMYAVQTLKDFQYVDRDGKDQGVNVREKAKQLVALLRDEDRLREERAHALKTKEKLAQTATASSAAVGSGPPPEAEQAWPQSSGEEELQLQLALAMSKEEADQPPSCGPEDDVQLQLALSLSREEHDKEERIRRGDDLRLQMAIEESKRETGGKEESSLMDLADVFTTPAPPQASDPWGGPASVPTAVPVAAAASDPWGAPAVPPAADPWGGAAPTPASGDPWRPAAPTGPSVDPWGGTPAPAAGEGPTSDPWGSADGGAPVSGPPSSDPWAPAPAFSDPWGGSPAKPSSNGTAVGGFDTEPDEFSDFDRLRTALPTSGSSTGELELLAGEVPARSPGAFDMSGVGGSLAESVGSPPPAATPTPTPPTRKTPESFLGPNAALVDLDSLVSRPGPTPPGAKASNPFLPSGAPATGPSVTNPFQPAPPATLTLNQLRLSPVPPVPGAPPTYISPLGGGPGLPPMMPPGPPAPNTNPFLL
# B3: Delta-like 1 (Dll1) (ligand, UniProt P97677 18-714, looked up)
# chain: QVWSSGVFELKLQEFVNKKGLLGNRNCCRGGSGPPCACRTFFRVCLKHYQASVSPEPPCTYGSAVTAVLGVDSFSLPDGAGIDPAFSNPIRFPFGFTWPGTFSLIIEALHTDSPDDLATENPERLISRLTTQRHLTVGEEWSQDLHSSGRTDLRYSYRFVCDEHYYGEGCSVFCRPRDDAFGHFTCGERGEKMCDPGWKGQYCTDPICLPGCDDQHGYCDKPGECKCRVGWQGRYCDECIRYPGCLHGTCQQPWQCNCQEGWGGLFCNQDLNYCTHHKPCRNGATCTNTGQGSYTCSCRPGYTGANCELEVDECAPSPCRNGGSCTDLEDSYSCTCPPGFYGKVCELSAMTCADGPCFNGGRCSDNPDGGYTCHCPAGFSGFNCEKKIDLCSSSPCSNGAKCVDLGNSYLCRCQTGFSGRYCEDNVDDCASSPCANGGTCRDSVNDFSCTCPPGYTGRNCSAPVSRCEHAPCHNGATCHQRGQRYMCECAQGYGGANCQFLLPEPPPDLIVAAQGGSFPWVAVCAGVVLVLLLLLGCAAVVVCVRLKLQKHQPPPDPCGGETETMNNLANCQREKDVSVSIIGATQIKNTNKKADFHGDHGADKSSFKARYPTVDYNLIRDLKGDEATVRDAHSKRDTKCQSQGSVGEEKSTSTLRGGEVPDRKRPESVYSTSKDTKYQSVYVLSAEKDECVIATEV
# Key:
# Assay in all cases: co-IP
# Myc-epsin1 = biological target: T1, Myc-epsin1
# Delta-like 1 (Dll1) = biological target: B3
# epsin1-Venus = biological target: B2
binder,measurement,setting,value
B1,fold decrease of the co-IP with PAR-1T560A-eGFP,Myc-epsin1,2 fold
B2,"fold increase of the co-IP, cells on N1Fc- against Fc-plates",Delta-like 1 (Dll1),1.8 fold
B3,"fold increase of the co-IP, cells on N1Fc- against Fc-coated dishes",epsin1-Venus,1.9 fold
